The numbers were not newly measured in article PMC5724930, which cites them from elsewhere.

Read-outs that look alike come from different tables or passages of the source.

The target in series [1] is proPanD (Escherichia coli) (UniProt P0A790).
Series [2] has the same target. This is another data set of the same source.

Sequence of proPanD (Escherichia coli) (P0A790 whole entry): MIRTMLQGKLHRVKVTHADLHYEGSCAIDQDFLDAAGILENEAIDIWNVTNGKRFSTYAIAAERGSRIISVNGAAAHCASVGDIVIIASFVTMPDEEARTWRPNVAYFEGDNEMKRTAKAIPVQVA
Sequence of PanZ (P37613 whole entry): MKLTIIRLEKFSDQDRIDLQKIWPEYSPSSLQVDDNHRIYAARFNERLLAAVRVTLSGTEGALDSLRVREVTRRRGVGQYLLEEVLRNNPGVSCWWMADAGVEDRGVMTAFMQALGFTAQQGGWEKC

As a reminder, the Kd is a measure of binding affinity in units of concentration. As for PanZ (from UniProt P37613), the Kd in series [1] was 4 µM; in series [2], 0.1 µM.
